Source: US20260250397A1, “TREATMENT OF GASTRIC CANCER” (AMGEN INC., priority 2022, published 2026)
Entries after “also recorded” stand apart in the source; their conditions may differ. Read-outs that look alike come from different tables or passages of the source.

What was measured:
[1] = cited from earlier work
[2] = treatment with bemarituzumab, versus FGFR TKIs; cited from earlier work
[3] = system: FGFR2b overexpressing gastric and breast cancer cell lines; experiment: Cell proliferation in cell culture; type: cell-based; details: FGF ligand-stimulated
[4] = Embryo-fetal development with prenatal and postnatal development study; type: in vivo; details: all dose levels (5 to 100 mg/kg/doses)
Experimental: (§1) The half-life was dose-dependent, ranging from 0.8 days at the lowest doses (1 to 1.5 mg/kg) to at least 8 days at the highest doses (100 to 150 mg/kg) tested in cynomolgus monkeys. […] Target-mediated clearance was saturable, marked by dose-proportional increases in exposure at doses exceeding this level when dosed at weekly intervals. […] As such, it is contemplated that in some embodiments, subjects treated with bemarituzumab are not pregnant.

[5] = Phase 1b study (Example 10): safety of bemarituzumab with CAPOX with or without nivolumab; type: in vivo, human; details: cohort A (DL1 & DL2) and cohort C; based on the known bemarituzumab safety profile
[6] = Pharmacokinetics after intravenous administration in cynomolgus monkeys; type: in vivo
Experimental: as §1

[7] = target: FcγRIIIa (Homo sapiens, UniProt P08637); experiment: Affinity for Fc receptor; type: binding; details: compared to the fucosylated molecule
Sequence of FcγRIIIa (P08637 17-254): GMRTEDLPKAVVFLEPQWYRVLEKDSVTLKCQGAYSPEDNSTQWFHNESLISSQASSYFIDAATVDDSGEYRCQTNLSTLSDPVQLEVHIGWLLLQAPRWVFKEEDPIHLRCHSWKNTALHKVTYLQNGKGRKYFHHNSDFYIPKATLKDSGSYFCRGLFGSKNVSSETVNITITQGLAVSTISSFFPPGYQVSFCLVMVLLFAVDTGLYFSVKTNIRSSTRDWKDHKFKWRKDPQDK
Text: In the method of some embodiments, the anti-FGFR2 antibody comprises the heavy chain of SEQ ID NO: 2 and the light chain of SEQ ID NO: 3, and is afucosylated.

[8] = system: FGFR substrate-2 (FRS2); experiment: Downstream signaling: phosphorylation of FGFR substrate-2 (FRS2); type: cell-based
Experimental: The effect on downstream signaling was measured by examining phosphorylation of a protein that is directly phosphorylated by the FGFR2 protein, FGFR substrate-2 (FRS2).

[9] = Phase 1b study (Example 10): bemarituzumab serum concentration / PK with CAPOX with or without nivolumab; type: in vivo, human; details: for Cycle 1 Cmax (median) / Cycle 1 Ctrough (median) / Cycle 2 Cmax (median) / Cycle 2 Ctrough (median): serum, preliminary
Text: The actual sample collection date and time (24-hour clock time) of each sample will be recorded.

[10] = Clinical safety of bemarituzumab (earlier studies, with mFOLFOX6); type: in vivo, human
Text: Corneal events are very common with bemarituzumab with the most common adverse event being dry eye. Although nearly all of the events have been non-serious, grade 3 events such ulcerative keratitis and punctate keratitis which can lead to decreases in visual acuity have been observed. The majority of the corneal events typically resolve with treatment interruption or discontinuation and standard of care interventions for the corneal events. As such, it is contemplated that in some embodiments, subjects treated with bemarituzumab are further treated with ocular lubricants. The ocular lubricants may be administered prophylactically to reduce the risk of corneal events.

[11] = system: FGF23 signaling; experiment: FGF23 signaling; details: in contrast to the FGFR tyrosine kinase inhibitors
[12] = target: T1, FGFR2b (Homo sapiens, UniProt P21802); experiment: FGF ligand-stimulated FGFR2b phosphorylation and receptor level in cell culture; type: cell-based
T1 construct: in cell culture in FGFR2b overexpressing gastric and breast cancer cell lines; endogenous in cells
T1 sequence (P21802 22-822 isoform P21802-3 limits assumed): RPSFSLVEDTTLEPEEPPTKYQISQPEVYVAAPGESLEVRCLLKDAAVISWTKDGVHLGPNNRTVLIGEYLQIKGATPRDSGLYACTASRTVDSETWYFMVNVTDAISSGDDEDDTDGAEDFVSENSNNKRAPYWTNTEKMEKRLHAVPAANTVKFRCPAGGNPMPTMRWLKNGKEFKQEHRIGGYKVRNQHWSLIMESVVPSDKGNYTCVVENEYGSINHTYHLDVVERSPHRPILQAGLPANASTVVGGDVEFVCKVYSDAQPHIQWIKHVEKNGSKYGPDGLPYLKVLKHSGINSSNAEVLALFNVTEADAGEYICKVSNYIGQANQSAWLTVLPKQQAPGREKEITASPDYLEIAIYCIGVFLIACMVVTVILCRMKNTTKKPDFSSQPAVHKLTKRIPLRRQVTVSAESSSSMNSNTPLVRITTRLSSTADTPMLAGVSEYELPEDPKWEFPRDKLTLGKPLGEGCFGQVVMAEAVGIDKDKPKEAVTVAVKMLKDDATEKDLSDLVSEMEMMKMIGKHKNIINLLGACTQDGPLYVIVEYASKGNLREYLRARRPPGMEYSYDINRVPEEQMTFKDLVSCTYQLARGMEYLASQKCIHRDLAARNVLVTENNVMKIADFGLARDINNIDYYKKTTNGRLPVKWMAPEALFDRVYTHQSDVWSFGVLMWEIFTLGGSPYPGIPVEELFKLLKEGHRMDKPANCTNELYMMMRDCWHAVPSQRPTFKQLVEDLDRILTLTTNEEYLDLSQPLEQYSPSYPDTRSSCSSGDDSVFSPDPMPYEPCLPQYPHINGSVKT

[13] = system: FGFR2b overexpressing gastric and breast xenograft models; experiment: Tumor xenograft models; type: in vivo
[14] = Cohort A DL1: 15 mg/kg IV Q3W + 7.5 mg/kg C1D8 + CAPOX, N=6
[15] = Cohort A DL2: 22 mg/kg IV Q3W + 11 mg/kg C1D8 + CAPOX, N=4
[16] = Cohort C: 22 mg/kg IV Q3W + 11 mg/kg C1D8 + CAPOX + Nivo, N=6

Compound: CCCCCOC(=O)Nc1nc(=O)n([C@@H]2O[C@H](C)[C@@H](O)[C@H]2O)cc1F [capecitabine]
- most common side effects ([1]; (30%)): diarrhea, hand-and-foot syndrome, nausea, vomiting, abdominal pain, fatigue/weakness, and hyperbilirubinemia

Compound: bemarituzumab
- hyperphosphatemia [2]: not associated with the hyperphosphatemia
- cell proliferation [3]: inhibits
- reproductive and developmental toxicities [4]: Significant reproductive and developmental toxicities were observed at all dose levels
- safety findings [5]: no new safety findings
- half-life ([6]; highest doses (100 to 150 mg/kg) tested): at least 8 days
- half-life ([6]; lowest doses (1 to 1.5 mg/kg)): 19 h
- PK behaviour ([6]; rats and cynomolgus monkeys): dose-dependent, nonlinear PK
- affinity for the Fc receptor FcγRIIIa [7]: higher affinity
- downstream signaling (FRS2 phosphorylation) [8]: inhibits downstream signaling
- drug-drug interaction (DDI) with respect to PK between bemarituzumab and nivolumab ([9]; CAPOX background): No drug-drug interaction
- Cycle 1 Cmax (median) [9, 14]: 360.8 µg/mL
- Cycle 1 Ctrough (median) [9, 14]: 111.5 µg/mL
- Cycle 2 Cmax (median) [9, 14]: 457.0 µg/mL
- Cycle 2 Ctrough (median) [9, 14]: 86.6 µg/mL
- Cycle 1 Cmax (median) [9, 15]: 333.8 µg/mL
- Cycle 1 Ctrough (median) [9, 15]: 125.9 µg/mL
- Cycle 2 Cmax (median) [9, 15]: 655.8 µg/mL
- Cycle 2 Ctrough (median) [9, 15]: 71.1 µg/mL
- Cycle 1 Cmax (median) [9, 16]: 381.4 µg/mL
- Cycle 1 Ctrough (median) [9, 16]: 130.1 µg/mL
- Cycle 2 Cmax (median) [9, 16]: 549.8 µg/mL
- Cycle 2 Ctrough (median) [9, 16]: 133.0 µg/mL
- safety profile ([10]; human, in vivo): acceptable safety profile
- identified risks ([10]; in combination with mFOLFOX6): corneal toxicity, infusion related reactions, gastrointestinal toxicity (stomatitis and mucosal inflammation), nail toxicity and increase in AST and ALT
- FGF23 signaling [11]: does not inhibit
- FGFR2b receptor level [12]: downregulates the receptor
- FGFR2b phosphorylation ([12]; FGF ligand-stimulated, FGFR2b overexpressing gastric and breast cancer cell lines): inhibits; also recorded: blocks
- tumor growth ([13]; FGFR2b overexpressing gastric and breast xenograft models): inhibits tumor growth
- anti-tumor activity ([13]; FGFR2b-overexpressing human tumor xenograft models, well-tolerated doses): dose-related anti-tumor activity with regression and complete responses

Compound: O=C1[O][Pt]2([NH][C@@H]3CCCC[C@H]3[NH]2)[O]C1=O [oxaliplatin]
- most common side effects ([1]; (40%)): peripheral sensory neuropathy, neutropenia, thrombocytopenia, anemia, nausea, increase in transaminases and alkaline phosphatase, diarrhea, emesis, fatigue, and stomatitis
